The values below are quoted from earlier work in PMC9477731.

In the series the target is CD28 (Homo sapiens) (UniProt P10747).

With CD80 (from UniProt P33681), the Kd was 4 µM.

In general, Kd refers to the concentration at which binding is half-saturated.
